Tested on: MS2 coat protein
Experiment: apparent KD of MS2 coat protein; higher = weaker reporter binding
Settings: Eterna round: R107
Method in brief: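 Designed RNA switches were transcribed on-chip from Illumina sequencing clusters. They were then titrated with SNAP-549-labelled MS2 coat protein (twofold steps, 0.7 or 1.5 nM to 3 µM; 0.8–1.5 h to 10–20 min per step) in 100 mM Tris-HCl pH 7.5, 80 mM KCl, 4 mM MgCl2, without or with constant ligand. Apparent KD is the per-design median of normalised cluster binding-curve fits.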

[1] = input ligand: theophylline 20 uM
[2] = input ligand: theophylline 2 mM
[3] = input ligand: tryptophan 2.4 mM

Row | Sequence | apparent KD of MS2 coat protein (input ligand: arginine 13.2 mM) | apparent KD of MS2 coat protein [1] | apparent KD of MS2 coat protein [2] | apparent KD of MS2 coat protein (input ligand: none) | apparent KD of MS2 coat protein [3]
1 | UUAUGCAGGUCGGCCGCCACUACACACAUGAGGAUCACCCAUGUAGUUACUGGGUGAAGUGGCAGUAGGACCGGGACCUGCAUAC [Brourdmod06] | 55.4 nM | 396 nM | 877 nM |  | 
2 | UGAUGGUGCUGAAGGAGCGUGUAAGAACAAGAACAUGAGGAUCACCCAUGUAUUAAUUUAACGCAGGUAGGUCGCGGUGUUAUUG [11.M] | 22.4 nM | 30.7 nM | 22.4 nM | 20.2 nM | 18.6 nM
3 | GUCCACAGCCGAAGGAGCGCUAGAAGAUGACAUGAGGAUCACCCAUGUGUGUGAUGUGGCUAGCAGGUAGGUCGCGGAGUGGAUU [Exclusion - Arginine B (Freestyle 14)] | 20.5 nM | 30.3 nM | 24.8 nM | 21.7 nM | 19.6 nM
4 | GGACUAACCAGAAGGAGCGACACGCAGAAACUGCUAAUUCCUCCGCACGAGGAUCACCCGUGUCAGGUAGGUCGCUGGUUAGUCG [ArgBX 28] | 20.3 nM | 28.5 nM | 24.3 nM | 20.5 nM | 23.3 nM
5 | UGACAUUGCUCAGAUACCAGACAUGAGGAUCACCCAUGUGCCAAAACGUACUAAAUAAAUGUCCCUUGGCAGCUGAGCAAUGUCU [TheoBX 13 #MS2Left #Theo2] | 13.5 nM | 14.4 nM |  |  | 12.9 nM
6 | AUAAAUAAAACCGAUACCAGCCUUAUACAUGAGGAUCACCCAUGUUAUGCUUCCUUUUUUGGCCCUUGGCAGCGGAAAUGGGUAA [AstrosSSTheB#1] | 45.3 nM | 74.4 nM |  |  | 75.6 nM
7 | UGUAUGUGAUCUGAUACCAGUCCAACUGGUAAAGCAUGAGGAUCACCCAUGUAAAAUUGGGACCCUUGGCAGCAGAUCGCAUACU | 146 nM | 190 nM | 316 nM | 166 nM | 138 nM
8 | UGGCAAGAGGGAAGGAGCGUCAGCUGAGUCACAUGAGGAUCACCCAUGUAGCACAUGGUGUGACAGGUAGGUCGCCCUCUGCCGU [SS-ArgB11] | 34.4 nM | 36.6 nM | 28.8 nM | 21.5 nM | 23.7 nM
9 | AUGAAGCUAAGAGAUACCAGUGACCACAGAUACAUGAGGAUCACCCAUGUCUCAAAUUGUCACCCUUGGCAGCUCACUAUCGAAG [theeternabot_sameState_MS2_Theo_B_29] | 11.2 nM | 11.9 nM |  |  | 10.2 nM
10 | UUAGAUAUGACAGAUACCAGCGUGUUGUAGAACAUGAGGAUCACCCAUGUAGUGAUCGUGCGCCCUUGGCAGCUGGUAUGUUUGG [7.W] | 148 nM | 341 nM |  |  | 788 nM
11 | AGUUUAGACACGGCCGCCACUCGUGACAGAUUUCGCAGUGGUCUACAUGAGGAUCACCCAUGUCUGAGGACCGGGUGUUGAGUUU [XTryp B #8] | 76.3 nM | 177 nM | 194 nM |  | 
12 | GCCGCUGCCGCGAUAUGUAUGGGUGUGUAACGAGGACCGGUACGGCCGCCACUCGCGAUCGCACAUGAGGAUCACCCAUGUGUCC [Exclusion Tryp A GF18] | 26.5 nM | 72.4 nM | 68 nM |  | 
13 | UGUCAGCGAAAGUUGACAUGUUGAACCGGUCGAGGACCGGUACGGCCGCCACUCGAUCUCUCGUACAUGAGGAUCACCCAUGUCG [SS Tryp A #18] | 11.9 nM | 14 nM | 11.7 nM |  | 
14 | GCUAGGUCAUCGGCCGCCACUAACGACGGCUCCAACAUGAGGAUCACCCAUGUGCCACAUGCGCAUAGGACCGGGAUGACCUAGC [SSTB NP+V+V2 #4] | 25.6 nM | 55 nM | 45 nM | 36.9 nM | 14.6 nM
15 | GAUUAAACAUGAGGAUCACCCAUGUAUAUACGAGGACCGGUACGGCCGCCACUCGAAAACGAGUAUCCUCGAAUAAACAUGAUAA [AK 2 SS Trypt (A)] | 27.7 nM | 48.3 nM | 52.8 nM |  | 
16 | GCUGCCAUACGAAGGAGCGCUGUUGUAGUGAGGCGAACAUGAGGAUCACCCAUGUGGCAGCAGCAGGUAGGUCGCGUAUGGCAGC [EAB #13] | 13.7 nM | 35 nM | 33.9 nM | 18.6 nM | 26 nM
17 | CAAUAAGUACCGGUCCUCAGAUCCUCAUGACGAGGACCGGUACGGCCGCCACUCGAAACAUGAGGAUCACCCAUGUAAUAAUAAC [Brourdmod02] | 20.6 nM | 68.4 nM | 51.9 nM |  | 
18 | UGAGGGACCAGAAGGAGCGACAUGAGGAUCACCCAUGUCUCCCGUUAUGGGAGUUCUUUAGGUCAGGUAGGUCGCUGGUCCCUCA [#1 Exclusion - Arginine B Attempt #7 (Inspired by Omei)] | 25.6 nM | 256 nM |  | 77.9 nM | 

Row | Sequence | apparent KD of MS2 coat protein (input ligand: arginine 13.2 mM) | apparent KD of MS2 coat protein [1] | apparent KD of MS2 coat protein [2] | apparent KD of MS2 coat protein (input ligand: none) | apparent KD of MS2 coat protein [3]
19 | AUAUGAUCAUGGGAUACCAGAAAUGGUAUUCCUUUAUUUCUUACAUGAGGAUCACCCAUGUUCCCUUGGCAGCUUAUGAUCAUAU [ETHB #5] | 53.7 nM | 85.8 nM |  |  | 67.9 nM
20 | UGUGCAGGAUGCGUAAAGGGUCUUGGGCAUCGAGGACCGGUACGGCCGCCACUCGGCUGUACAUGAGGAUCACCCAUGUCAGGGU [#1 Same State - Tryptophan A Attempt #20 (HarryS)] | 90.8 nM | 1060 nM | 393 nM | 226 nM | 271 nM
21 | AGCCGGAUUACGGCCGCCACUGUAGACGUGACGAAAGUCGCGUCAACAUGAGGAUCACCCAUGUACAGGACCGGGUGGUCCGGCA [Omei Trp B SS A v3] | 7.09 nM | 11.2 nM | 8.87 nM | 9.61 nM | 8.97 nM
22 | UCGUUAUGGUCGGCCGCCACUCGCGGAGAGCAUAGCUCAAACAUGAGGAUCACCCAUGUAUCAUGGAGGACCGGGACCAUAACGU [Rxmullin variation #StaticStem] | 30 nM | 46.1 nM | 42.7 nM |  | 
23 | CCAUGGUUGACGGCCGCCACUCAUUAGUCUUUGAGGUUGGCACAUGAGGAUCACCCAUGUCUGCAGAGGACCGGGUCUCGCCACA [theeternabot_sameState_MS2_Trp_B_15] | 39.8 nM | 67.3 nM | 54.4 nM |  | 
24 | AGCCCGGGAGCGGCCGCCACUGGAGGCUUAGCGCGACAUGAGGAUCACCCAUGUGUGCCCGGCGUUAGGACCGGGCUCGCGUGGU [#1 Same State - Tryptophan B Attempt #22 (HarryS)] | 15.3 nM | 52.7 nM | 46.1 nM | 31.2 nM | 35.2 nM
25 | UAUAUUGUGAUGGAUACCAGCAGAGAAAACGUUUAUCCUAACAUGAGGAUCACCCAUGUAUGCCCUUGGCAGCUGUUGUGAUAUA [8.N] | 47.6 nM | 73.9 nM |  |  | 61.1 nM
26 | GGCACGUACGGAAGGAGCGACUGUUCGACGUGGGUACAUGAGGAUCACCCAUGUCUCCGCAGUCAGGUAGGUCGCCGUACGUGCC [EAB NP+V+V2 #21 +-Same Structure] | 34.3 nM | 63.6 nM | 49.8 nM | 42.7 nM | 38.6 nM
27 | UUAAUCGUGCAUGAUACCAGUAUCCGUAGAUACAUGAGGAUCACCCAUGUCUGGUUGGAAUACCCUUGGCAGCAUGGGUUGAGGA [theeternabot_sameState_MS2_Theo_B_20] | 37.1 nM | 224 nM |  |  | 238 nM
28 | CGCACAUGAGGAUCACCCAUGUGAGGGCGGCGAGGACCGGUACGGCCGCCACUCGCAAAACAUGAGGAUCACCCAUGUGCCGCCG [SSTA DOUBLE!!! :-D #2] | 30.1 nM | 92.3 nM | 103 nM | 32.9 nM | 29.2 nM
29 | UACAUGAGGAUCACCCAUGUGUAGAGGGAUACCAGUGACAGUAAGCGCCCUUGGCAGCCCGUGAACAAUGGGUGAGCAAAAUAGU [#17 Exclusion-TheophyllineA] | 41.4 nM | 233 nM | 25.6 nM | 19.4 nM | 44.7 nM
30 | AGCGCUGUGCAUGAUACCAGCUACAUGAGGAUCACCCAUGUGCGUCAGAAAUGACUGUGUAGCCCUUGGCAGCAUAAAGCAUGUA [Exclusion - Theophylline B (Freestyle 8)] | 19.7 nM | 26.6 nM |  |  | 19.6 nM
31 | AGCACUGUGACGGCCGCCACUACAUAUAGGGUGGUCAGGUUCAUAAUACAUGAGGAUCACCCAUGUAGGACCGGGUCUCAGUGCA [Omei Trp Exc B A v5] | 12.5 nM | 14.6 nM | 14.6 nM |  | 
32 | CAUAGCAAAAGUGAUACCAGAGUUCGAGGGAACAUGAGGAUCACCCAUGUGCUUGUACAACUCCCUUGGCAGCACAGAGCAAUUA [theeternabot_sameState_MS2_Theo_B_16] | 24.3 nM | 22.1 nM |  |  | 26.9 nM
33 | ACGCCCAGGUAGGCUUAAUGGGAUAUGGAAGGAGCGCUGAUGCAAGCAGGUAGGUCGCCAACGGACAUGAGGAUCACCCAUGUAC [Same State - Arginine A (Freestyle 3)] | 15.3 nM | 22.3 nM | 23.8 nM | 20.9 nM | 19.5 nM
34 | UAAUAAUUGUGAUUCUCAGGUCCUCGAUAACGAGGACCGGUACGGCCGCCACUCGAACAUGAGGAUCACCCAUGUAUGAGGACCU [M'-T'-T-MS2-T'' - Design 3] | 13.8 nM | 21 nM | 19.6 nM | 15.9 nM | 13.8 nM
35 | AGUAGACACGCGGCCGCCACUUGAGGAUCACCCAGGUGGUGUGUACUUGAAACAAGUGCACAAUCAAGGACCGGGCGUGUCUACA [Omei Tryp B SS D v1] | 12.6 nM | 17.4 nM | 15.1 nM | 13.5 nM | 83.7 nM
36 | GGGUGGUAGGCGGCCGCCACUGAUUUUUAUUUAUAGAUGACAUGAGGAUCACCCAUGUUGAUAUGCAGGACCGGGCCUGUUGUUG [aaaP] | 10.9 nM | 19.7 nM | 15.4 nM |  | 
